Consider 39 sequences from the supplement of paper PMC7877785.

± gives the uncertainty stated by the source.

The nature of this series: self-splicing fitness, log relative to wild type (ln ratio); higher = more splicing; Tetrahymena group I intron in knt gene, E. coli kanamycin selection, DiMSum; sequences stand for … in CUCUCU…GGAGGGAAAAGUUAUCAGGCAUGCACCUGGUAGCUAGUCUUUAAACCAAUAGAUUGCAUCGGUUUAAAAGGCAAGACCGUCAAAUUGCGGGAAAGGGGUCAACAGCCGUUCAGUACCAAGUCUCAGGGGAAACUUUGAGAUGGCCUUGCAAAGGGUAUGGUAAUAAGCUGACGGACAUGGUCCUAACCACGCAGCCAAGUCCUAAGUCAACAGAUCUUCUGUUGAUAUGGAUGCAGUUCACAGACUAAAUGUCGGUCGGGGAAGAUGUAUUCUUCUCAUAAGAUAUAGUCGGACCUCUCCUUAAUGGGAGCUAGCGGAUGAAGUGAUGCAACACUGGAGCCGCUGGGAACUAAUUUGUAUGCGAAAGUAUAUUGAUUAGUUUUGGAGUACUCGUGGUCG
The essentials: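 Pooled colonies went to amplicon sequencing on an Illumina HiSeq 2500 after six replicate transformations. The plates were LB agar with 100 μg/mL carbenicillin, 50 μM IPTG and 0.2% rhamnose, with or without 25 μg/mL kanamycin, incubated overnight at 37°C or 30°C. The E. coli BL21(DE3) library had all eight P1ex-region intron nucleotides randomised, the intron placed in the knt kanamycin-resistance gene on pET-22b(+). DiMSum fitness is the error-weighted combination of replicate fold changes, kanamycin against none, normalised to wild type.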

In the case of GUAUAGCAAUAUUACGCAAC, the “self-splicing fitness (ln)” value (30 °C) was -2.53 ± 0.37.

On to GUGUAGCAAUAUUACGCUAA, for which the “self-splicing fitness (ln)” value runs as follows: (30 °C) -1.77 ± 0.42; (37 °C) -1.01 ± 0.3.

Consider UAACAGCAAUAUUACGAAGG, for which the “self-splicing fitness (ln)” value is -1.76 ± 0.083 (30 °C) and -1.78 ± 0.12 (37 °C).

In the case of AUAAAGCAAUAUUACGAGGA, the “self-splicing fitness (ln)” value runs as follows: (30 °C) -3.28 ± 0.23; (37 °C) -1.74 ± 0.19.

In the case of UCCUAGCAAUAUUACGGACG, the “self-splicing fitness (ln)” value is, setting by setting: (30 °C) -3.92 ± 0.4; (37 °C) -2.47 ± 0.39.

Regarding ACGUAGCAAUAUUACGAUGC, the “self-splicing fitness (ln)” value is, setting by setting: (30 °C) -3.24 ± 0.22; (37 °C) -1.51 ± 0.22.

As for AAGAAGCAAUAUUACGCACA, the “self-splicing fitness (ln)” value is -0.267 ± 0.082 (30 °C) and -0.233 ± 0.097 (37 °C).

Regarding CACUAGCAAUAUUACGCAAC, the “self-splicing fitness (ln)” value (37 °C) is -2.5 ± 0.29.

On to AGUAAGCAAUAUUACGUCCA, for which the “self-splicing fitness (ln)” value by setting is: (30 °C) -0.878 ± 0.12; (37 °C) -0.0078 ± 0.13.

Take UCCGAGCAAUAUUACGAUCC: the “self-splicing fitness (ln)” value (37 °C) is -0.617 ± 0.39.

UUGGAGCAAUAUUACGCAUG: the “self-splicing fitness (ln)” value reads like this: (30 °C) -3.5 ± 0.26; (37 °C) -0.58 ± 0.13.

On to GUAUAGCAAUAUUACGAACC, for which the “self-splicing fitness (ln)” value runs as follows: (30 °C) -2.63 ± 0.43; (37 °C) -0.238 ± 0.23.

For UCCGAGCAAUAUUACGGUUC, the “self-splicing fitness (ln)” value runs as follows: (30 °C) -3.78 ± 0.39; (37 °C) -3.02 ± 0.31.

In the case of CCAGAGCAAUAUUACGUUAG, the “self-splicing fitness (ln)” value was -3.15 ± 0.097 (30 °C) and -1.72 ± 0.097 (37 °C).

Regarding ACCGAGCAAUAUUACGAGGA, the “self-splicing fitness (ln)” value was -2.77 ± 0.21 (30 °C) and -2.99 ± 0.38 (37 °C).

On to AAAGAGCAAUAUUACGAGGA, for which the “self-splicing fitness (ln)” value by setting is: (30 °C) -2.26 ± 0.31; (37 °C) -2.6 ± 0.27.

CCCAAGCAAUAUUACGAGGG: the “self-splicing fitness (ln)” value is -4.18 ± 0.17 (30 °C) and -2.53 ± 0.16 (37 °C).

For UACAAGCAAUAUUACGGGCA, the “self-splicing fitness (ln)” value (30 °C) is -0.0705 ± 0.063 and the “self-splicing fitness (ln)” value (37 °C) turned out to be 0.152 ± 0.072.

With GCCCAGCAAUAUUACGGCCU, the “self-splicing fitness (ln)” value is -2.68 ± 0.16 (30 °C) and -0.992 ± 0.13 (37 °C).

As to ACUAAGCAAUAUUACGGGCU, the “self-splicing fitness (ln)” value (30 °C) is -0.833 ± 0.089 and the “self-splicing fitness (ln)” value (37 °C) is -0.736 ± 0.083.

For the sequence AAAUAGCAAUAUUACGAAUU, the “self-splicing fitness (ln)” value was -1.65 ± 0.1 (30 °C) and -0.368 ± 0.12 (37 °C).

On to UGAAAGCAAUAUUACGGGUU, for which the “self-splicing fitness (ln)” value (30 °C) is -4.06 ± 0.27 and the “self-splicing fitness (ln)” value (37 °C) was -2.06 ± 0.19.

As to GUUUAGCAAUAUUACGACUU, the “self-splicing fitness (ln)” value runs as follows: (30 °C) -0.551 ± 0.11; (37 °C) 0.304 ± 0.14.

Take AUACAGCAAUAUUACGAGUC: the “self-splicing fitness (ln)” value is -3.23 ± 0.19 (30 °C) and -2.57 ± 0.19 (37 °C).

GGGCAGCAAUAUUACGACUA: the “self-splicing fitness (ln)” value runs as follows: (30 °C) -0.237 ± 0.094; (37 °C) 0.125 ± 0.11.

Regarding GGUCAGCAAUAUUACGCGCU, for the setting “37 °C”, the “self-splicing fitness (ln)” value was -2.13 ± 0.15.

As for GGCUAGCAAUAUUACGACGU, the “self-splicing fitness (ln)” value is, setting by setting: (30 °C) -0.0784 ± 0.15; (37 °C) 1.15 ± 0.28.

Take CGCCAGCAAUAUUACGGUAG: the “self-splicing fitness (ln)” value runs as follows: (30 °C) -2.51 ± 0.11; (37 °C) -2.03 ± 0.18.

Take UUCCAGCAAUAUUACGGUAA: the “self-splicing fitness (ln)” value (30 °C) was -0.236 ± 0.087 and the “self-splicing fitness (ln)” value (37 °C) is -0.0663 ± 0.086.

With AUACAGCAAUAUUACGCCGA, the “self-splicing fitness (ln)” value is -1.98 ± 0.18 (30 °C) and -1.51 ± 0.19 (37 °C).

UAUAAGCAAUAUUACGCAAU: the “self-splicing fitness (ln)” value (30 °C) is -2.11 ± 0.13 and the “self-splicing fitness (ln)” value (37 °C) is -2.1 ± 0.15.

With UGAUAGCAAUAUUACGGAGC, the “self-splicing fitness (ln)” value reads like this: (30 °C) -3.26 ± 0.24; (37 °C) -3.25 ± 0.47.

On to AAGUAGCAAUAUUACGCACU, for which the “self-splicing fitness (ln)” value runs as follows: (30 °C) -0.686 ± 0.095; (37 °C) -0.854 ± 0.14.

AAGCAGCAAUAUUACGCGCG: the “self-splicing fitness (ln)” value was -1.16 ± 0.082 (30 °C) and -0.105 ± 0.1 (37 °C).

For the sequence GAUUAGCAAUAUUACGUUAC, the “self-splicing fitness (ln)” value was -2.63 ± 0.19 (30 °C) and -2.53 ± 0.23 (37 °C).

As to UAGAAGCAAUAUUACGUAGG, the “self-splicing fitness (ln)” value is -1.78 ± 0.093 (30 °C) and -1.61 ± 0.16 (37 °C).

On to GCAAAGCAAUAUUACGUCAA, for which the “self-splicing fitness (ln)” value (30 °C) is -3.16 ± 0.19 and the “self-splicing fitness (ln)” value (37 °C) is -2.02 ± 0.14.

Regarding UAGGAGCAAUAUUACGCUUC, the “self-splicing fitness (ln)” value (30 °C) is -2.64 ± 0.35.

Consider AUAGAGCAAUAUUACGACGA, for which the “self-splicing fitness (ln)” value is -0.935 ± 0.093 (30 °C) and -0.479 ± 0.13 (37 °C).
